Source: patent US20060247420A1, “Immune cell recptor ligand and immune cell receptor” (priority 2002, published 2006)

Key:
[1] = target: T1, NKG2D immunoreceptor (recombinant human NKG2D/Fc chimera) (Homo sapiens, UniProt P26718); test: Binding of recombinant soluble NKG2D-Fc to Letal-transduced cells, flow cytometry; details: Letal^+ K562 and Letal^+ SKOV3 cells; 3 μg/ml NKG2D/Fc; anti-human IgG mAb
T1 construct: containing the ectodomain of the immunoreceptor (Phe78 through Val216); purchased R & D Systems
T1 sequence (P26718 78-216): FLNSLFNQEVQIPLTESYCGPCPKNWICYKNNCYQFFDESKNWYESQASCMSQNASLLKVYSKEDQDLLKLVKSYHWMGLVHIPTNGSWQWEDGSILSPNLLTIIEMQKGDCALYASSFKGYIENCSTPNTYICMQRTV
Source text: Constructs and generation of antibodies. SKOV3 and K562 cells were transduced using retroviral vector MIGR1, generously provided by Warren Pear (University of Pennsylvania). Letal or mock transductants expressing equivalent levels of the green fluorescent protein were sorted and cultured by standard procedures. […] Anti-human IgG mAb (G18-145; Pharmingen, San Diego, Calif.) was used to detect the chimerical molecule.
Letal is a ligand of NKG2D expressed in a variety of normal tissues. […] Expression of the Letal protein was confirmed on transduced cells, but not on mocked transductants, by flow cytometry using serum of Letal-immunized mice (FIG. 1D). […] To evaluate the binding of NKG2D to transduced Letal, a recombinant soluble NKG2D-Fc fusion protein was used, containing the ectodomain of the immunoreceptor (Phe78 through Val216). […] Treatment with phospholipase C decreased binding of sNKG2D to Letal^+ K562 cells, although binding was higher than to control cells.

peripheral CD8^+ T-cells = test: CD8+ lymphocyte proliferation/expansion with K32 aAPCs ([3H] thymidine); format: cell-based, human; details: K32 aAPCs, 2 to 5 days
Source text: CD8^+ lymphocyte stimulation and cytokine release. To analyze the effects of Letal on the T-cell proliferation and production of cytokines, a previously described artificial antigen-presenting cell (aAPC) model was used (Maus et al, Nat. Biotechnol. 20(2):143-148 (2002)). Briefly, the system is based on the stable expression of the human low-affinity Fcγ receptor, CD32, on K562 cells (K32 cell line). K32 cell-based aAPCs were additionally transduced with Letal or with the empty vector as described above, irradiated with 100Gy, and washed twice with RPMI medium. Letal^+-K32 cells or mock transductants were loaded, when indicated, with anti-CD3 (OKT3), or anti-CD3 plus anti-CD28 (mAbs; 9.3) monoclonal antibodies at 0.5 μg/ml for 10 min at room temperature. Loaded &APCs were mixed with CD8^+ T-cells at a 1:2 ratio and the T-cell concentration was maintained at 0.5×10^6 cells/ml throughout the culture. Cultures were pulsed with 1 μCi of [^3H] thymidine from day 2 to day 5 and incorporated radioactivity was determined using a 1450 Microbeta scintillation counter (Wallac, Turku, Finland). The amounts of secreted IL-2 and IFNγ were determined by commercial ELISA, following the manufacturer's instructions (R & D Systems). Flow cytometry was performed with a FACScalibur (BD Biosciences, San Jose, Calif.). […]

[2] = system: glucose transporter Glut-1 in peripheral CD8^+ T-cells; test: Glut-1 expression in stimulated CD8+ T-cells, flow cytometry; format: cell-based, human; details: 20 hr stimulation
Source text: CD8^+ lymphocyte stimulation, cytokine release and glucose metabolism analysis. To analyze the effects of Letal on the T-cell proliferation and production of cytokines, a previously described artificial antigen-presenting cell (aAPC) model was used (Maus et al, Nat. Biotechnol. 20:143-148 (2002)). Briefly, the system is based on the stable expression of the human low-affinity Fcγ receptor, CD32, on K562 cells (K32 cell line). K32 cell-based aAPCs were additionally transduced with Letal or with the empty vector as described above, irradiated with 100Gy, and washed twice with RPMI medium. […] Cultures were pulsed with 1 μCi of [^3H] thymidine from day 2 to day 5 and incorporated radioactivity was determined using a 1450 Microbeta scintillation counter (Wallac, Turku, Finland). The amounts of secreted IL-2 and IFN-γ were determined by commercial ELISA, following the manufacturer's instructions (R & D Systems). […]
Letal signaling increases glucose transporter expression and glucose uptake during T-cell activation. […] To test whether Letal may have a similar effect during T-cell activation, peripheral CD8^+ T-cells were stimulated for 20 hr with anti-CD3, anti-CD3/anti-CD28, anti-CD3/Letal, or Letal alone and the expression of the glucose transporter Glut-1 was analyzed by flow cytometry. […]

[3] = system: Fas on peripheral CD8^+ T-cells; test: Fas expression on stimulated CD8+ T-cells, flow cytometry; format: cell-based, human; details: 4 days stimulation
Protocol: Apoptosis assay. The percentage of apoptotic cells was determined after 17 h incubation with 50 μM cisplatin or 18 hs exposure to 0.1 μg/ml anti-CD95 mAb (EOS9.1; Pharmingen) by using the TACS annexin-V apoptosis detection kit, according to the manufacturer's instructions (R & D Systems). Fas expression was determined by flow cytometry by using EOS9.1 as a primary Ab and a PE-labeled anti-mouse IgM (R6-60.2; Pharmingen) as a second Ab.
Letal engagement protects CD8^+ T-cells from FasL-induced apoptosis. […] Because ovarian carcinomas express FasL and other lymphocyte-depleting death ligands (Rabinowich et al, J. Clin. Invest. 101:2579-2588 (1998)), the prevalence of FasL expression and its impact on TILs was determined in 42 stage III ovarian carcinoma specimens. Strong FasL immunoreactivity was detected in tumor cells in areas of selected specimens (FIG. 10A), as well as in a proportion of stromal leukocytes. To test whether Letal promotes the generation of activated T-cell subpopulations that are able to resist the pro-apoptotic tumor microenvironment, peripheral CD8^+ T-cells were stimulated for 4 days with CD3/Letal, CD3/CD28, or anti-CD3 alone, and expression of Fas was measured by flow cytometry. […]

B1: Letal: MHC-I related transmembrane ligand for the NKG2D receptor, polypeptide of SEQ ID NO:8; tested as expressed on transduced cells (protein)
chain: GGHSLCFNFTIKSLSRPGQPWCEAQVFLNKNLFLQYNSDNNMVKPLGLLGKKVYATSTWGELTQTLGEVGRDLRMLLCDIKPQIKTSDPSTLQVEMFCQREAERCTGASWQFATNGEKSLLFDAMNMTWTVINHEASKIKETWKKDRGLEKYFRKLSKGDCDHWLREFLGHWEAMPEPTVSPVNASDIHWSSSSLPDRWIILGAFILLVLMGIVLICVWWQNGEWQAGLWPLRTS
[1]
  staining by NKG2D-Fc compared with mock-transductants: markedly stronger staining
Peripheral CD8^+ T-cells
  proliferation / activation of CD8^+ cells: No activation
[2]
  Glut-1 expression: dramatic induction
[3]
  T-cells with dramatically reduced Fas expression compared to controls: 60%
